Reference: article PMC7092807 (Biochemical and Biophysical Research Communications, 2004)

Molecular target: the molecule itself
Assay: SEC

B1: SARS-CoV soluble S ectodomain (Se) (domain or fragment)
chain: not shown
- stoichiometry N: 3
